Reference: the DeepSol protein solubility set

Assay: soluble on expression in E. coli; label from the status in PepcDB or PDB records

Row | Sequence | soluble on expression in E. coli
1 | MNNWKLILPLMMSGSLIACTSTQTTTEPVEPETPKVEQPVTVEPEVKPEVEPKPEVKPKPETKPEKKPEPKPEKPVKVQKTPDGMLILGSEEWVYVPAIDQTFKARVDTGATTSSISATEIVPFERDGKDWVQFKIDINGKTSKEFKVPVERWAKVKQSSSDEVDKRAVVVAYIQVGDYKEKTEFTLADRDHMKFPILLGRSFFRDIAVVDVSKKYIQDKPTKSTKK | not soluble
2 | MNQRLVYVVSDSGGETAELVVKAAASQFHASPIQVKRVPYVEDKTTLAEVVALAKMNRAIIAFTLVVPEMREFLLAEAAREGVVAYDIIGPLIEKMSHLFQLTPRYEPGQVRVLDEDYFKKIEAIEFAVKYDDGRDPRGILRADIVLIGVSRTSKTPLSQYLAHKRLKVANVPIVPEVEPPEQLFRVGPGKCFGLKISPDKLLSIRRERLKSLGLNDQAIYANMDRIKEELAYFDEVVKKIGCDVIDVTNKAVEETASIIMKKLKR | not soluble
3 | MNQSADAKPPKPDGRVTRSVTVRKLGPGANKEKQESDNSQKKKTVNAAAQKADTSSKRNSGNPQKPKKPKHEAIKVSTRRLSASSKPPPPAPQNVPKMNSFVGNGNTRMIMVQTTPQAKKLEAEMKLRMQNKGESPEASLLVLESRTPEPTVQQVLEELQNDVVNPKSSTTPEGYSFELRNLKTPEIPAMPTPLACSPAAARNSPVVKKIQNHVPNVTLVPSEPREPSLRKLHLGTLKLKFLAFPLTTGFKKLQKLQDPLARIKLATEKLKERRAQLDTQKKHTMFLPEAFIGPHFNETIASGFYALFNASHFQVHYNSEGKRLGSGTMCVLKNQMNGARDWFAGNTWRAVKMMYMRTRDAEKHKNSEVKLFVEKLPDWSTEQLEEKLRNEFKLSDFQLLYDYKGNNLRSAIVLLKYPDAINLCNSIRSNPTVFGKEWHPRVFEVLDVAVQPPIDK | not soluble
4 | MNRDLPVLRALRSLPDKVVGEALVSNDAISMRYDVDASTGKVVRPSHDLYGQSISGKVLIFKNTKGGVATGWALLNLKSRGTAPIALVCDTTNPVFVQGAALAGLPIMDGFRESPRSAVRTGDVVELDGISGELKVLRRGAGGQLEHHHHHH | not soluble
5 | MNREFVEAMQHLALERGVSVEEILKAFKRALRKAYIKRQKGYKKEEIDQGKGPEVDVYIDPNSGRIEMVKVRRVVEKVEDPDKEIALAEALQYDPEVQVGDEMEFPINPEELSRMAIQDLRQILTQRLKESERNRIYNEYKDKEGQVLTGVVTRVDNRGNVFVELGRGEAYLPRSEQIPTEKYHPGQRIKVYLKKVDKSAKGPSLLVSRAHEKLLEHLLKQEVPEIAEGIVEIKAIAREPGRRSKVAVTSHNPNVDPIGACIGHKGQRIQAVSAELGREKVDIILWSKDPKEFIRNALSPAQVGSIELDPEAKKARVKVTKDQHSLAIGTGGQNVRLASKLTGYDIHFEEAEISDLDEALRRAAEEEAEARERKAREEFEKLFRDLG | soluble
6 | MNRKPRTRSTIVPGRKMITEIVALREAGLDDTRPSYLEEPTVIVDESMMNDSANLEEREWRKQGLSEKQMFAILEKRKQTQLNNARKRLEKEMYGAKTFKELIACREYSECESDSENTVNQNVRSASVFAIPALPKHISEKSMMGSPIANSRGSGKAGLSCSTPKSSSDTSMRSLRSLDISHVVNTDRLDAERVTVHTKSVVIPTILEERESTLQKTLTIEKNHSSQLQKTFTVAEDAPEELQKTVTIEKNQSSEMQRTFTVAKDASKEQSQLQRTVTIEKNQSSQLQGNFTVAKDAPEELQKTVTIEKNQSSEMQGTVTVAKDAEHSSLQKTFTKPTEKDESSLQRTFNVANRDENNDSTLQKTFIIEERDAYEQGTTSVGVKPPVLAQNTMEGGEKRRTSKVTSDERERRNASISNPLHNSMLEKEEIQSPGANFFKHPRKKIRPVVQTPPRIKATSRLSTESNKERTIEMESVAEERTMEADSIGSSYISPTFNASRVSPVPEVPEKVEPMHVSKAATPKSIRHTDNSIRNIGPTNNVECARAALLSTPTRMDIVDSVNRVTPARRYEQPTFASLVKRMNMKDANRLLEETSRKNTPAKTTATTSSAAVRMVLEDDEEDQATEVIEKRSENGGVIVDGEDEAADSSNRSLNIELNALTVNEEPAHDISAIDFPEDDTNEMRSSSDEEEMEARPDPRKKSSRRLGLLSDSIALGLASSSRRRPNDTFVDETWYPEPNSKGNRRPRTHRGMKLKEHQLMKPEDAPDGVRRSTRVRVKPVRSWLGEQPVYVNSPISGCKRLTGVTAVVIKDPRLCYYRTADVRTATERELKDKANKRALAQEKKQQRQNARSGRRHDSDDDEEDDM | not soluble
7 | MNRLHGQQVKIGYGDNTIINKLDVEIPDGKVTSIIGPNGCGKSTLLKALSRLLAVKEGEVFLDGENIHTQSTKEIAKKIAILPQSPEVADGLTVGELVSYGRFPHQKGFGRLTAEDKKEIDWAMEVTGTDTFRHRSINDLSGGQRQRVWIAMALAQRTDIIFLDEPTTYLDICHQLEILELVQKLNQEQGCTIVMVLHDINQAIRFSDHLIAMKEGDIIATGSTEDVLTQEILEKVFNIDVVLSKDPKTGKPLLVTYDLCRRAYS | not soluble
8 | MNRMRWVGEGDIWDLDMSTPVTLEGTARAVPDDPLPLGLSRGTRLSRPKQVEFFHRFMASPLIPSFSPIRPNTGDGGGGGFSLQRVLTLPFSNNWLVSLLGQFDVQRFVTEIDKTKAFGRGSSSTVASRLNTIGKHLKDKSLYALGFCSEFLLSPDDTLLLSYDAYKGDLDKNPRAKAIFNHEFPLHNLTAEAVWPGLFVDKHGEYWDVPLSMAIDLASLPAESGPSYHLCLHHNSGSPKKLHSDTMEVPPPSLLPGLSLKSAVSYRTNMDLWRGTTPKLETCKPYDVFLSSPHVAVSGIIGSVMTAAFGENSIRSKFENDSEGVGGFSLHFPSVNSGFMADALGRASLTAQYGNFQKFFFDLTRFHARLDFPHGLRFLTGATSVAQDLLNSRQPSLEAFQKICPEVLVSLQQQIVGPFSFKVESGIEIDLRNGANPVTVDKTVFAIEYALQVLLSAKAVVSYSPKQNEFMVELRFFET | soluble
9 | MNRREANALDRYLTEPTEKPHKETYEDDPVDTTDYFGNEIADEDGVFEITFAMKCLYTGQPVLTCKKIATQDTIVDLIEELGEENVYLIEYVSSGKRYKEGLLND | not soluble
10 | MNRTAMRASQKDFENSMNQVKLLKKDPGNEVKLKLYALYKQATEGPCNMPKPGVFDLINKAKWDAWNALGSLPKEAARQNYVDLVSSLSPSLESSSQVEPGTD | soluble
11 | MNRYRKILVAGIIDQEEQPALKRALDIANRTTKPSEITLFCTTYDFSYEMTSMLSADERMAMRNGVVSQKVKMLNDVIADYSKSDHVTITIKVVWHNRPYEAIINEIFDDSYNILIKATRQHAKLETVFFTPTDWHLLRKSPIPVLLVKERPWPENGNILASVHVGSENPAHLQLNDKMVDEAIYFAEVLNSTPHLVNAYPSTPPSIHVELPEFNAVQYKDAIRGHHLTQMKALRQKYGIPEEQTHVYEGPTEEVISEVEDELTAGLVILGTTGRTGLSAIFIGNTAENTLDLLNCDILALKPDGYISPLDPNHIS | not soluble
12 | MNSAGLEQCGMIMTRKNYYITTDGLLKRNENTLYFINKDLKRPIPINKIYSIYSYGALTISSQALNLLSKEGIPIHFFNRYGFYSGSFYPRETLLSGDVIIKQAEHVIDHDKRIELARSFVRGAALNMRRVLSYYGIENGISDTLMDLDSSNSVTDVMNVEGRIRSDYYNAIDSILPEGFRIGKRTRRPPENMTNAMISFGNSLLYSTVITELYNTQLNPTISYLHEPFERRYSLALDLSEIFKPTLIDRMIISLIKKKAIKAEDFEHGMNHCLLNNSGKRKFLAEYDRRLGKTVKHRELGRKVSYRRLIRLEAYKLIKHLIGQKSYEPFVMWW | not soluble
13 | MNSALYANYLNILKQELVPALGCTEPIAIAYAAAKAHQVLGEFPDSVNMSLSGNIIKNVKGVTVPNSGGLKGIDVAAILGIVGGNADKALEVLSEITEDDIARTRELVKQHVCSCSLVEGVDNLYITAKVIKGDHFASVTIEHQHTNITRIEKDGEVILDNPYQAECKTVIDKSKLTVKDILDFADQVRIEDVQPIIDRQIKLNSAIAQEGLDNNYGAQIGKTLMHVWGKSVTTRACARAAAGSDARMGGCSMPVVINSGSGNQGMTVSLPVIVFADEWEVSHEKLCRSLVVSNLIAIHQKYYIGSLSAYCGAVSAACGAGAGITYMYGGTYQQVSLTIINTLGNVGGIVCDGAKPSCAAKIASSVDAALMAFQLSIQNKSFLPGEGIIKDDIEETIKSMGYIGRVGMRSTDTEILNVMIDRADINQGC | not soluble
